Data: US20050221343A1 (LOS ALAMOS NATIONAL SECURITY, published 2005)
No end group written: not given here.

Biological target: T1, folding reporter GFP 1-10 (Aequorea victoria, UniProt P42212 1-214 = GFP)
T1 construct: range 1-214; also called folding reporter GFP fragment 1-214; FR
Assay: co-expression from compatible pET vectors in E. coli, colony fluorescence (split GFP complementation)

T1 sequence (P42212 other isoform, or with tags, fused parts or gaps limits assumed): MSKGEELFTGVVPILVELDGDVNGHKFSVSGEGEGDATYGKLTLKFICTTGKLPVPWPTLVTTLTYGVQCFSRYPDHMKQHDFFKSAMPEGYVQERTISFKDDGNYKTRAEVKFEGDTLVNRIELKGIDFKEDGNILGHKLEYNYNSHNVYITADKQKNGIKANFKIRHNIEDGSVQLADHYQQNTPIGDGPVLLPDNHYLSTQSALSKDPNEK

B1: GFP S11 wild type (peptide)
peptide: KRDHMVLLEFVTAAGITGT
modifications: also: fused to sulfite reductase
notes: also called GFP S11 214-230; wild type GFP S11
binding result: no binding
